Measured values from PMC7655986.

Target: T1, recombinant Fc-construct of the Dsg2 extracellular domain, Q14126
T1 chain: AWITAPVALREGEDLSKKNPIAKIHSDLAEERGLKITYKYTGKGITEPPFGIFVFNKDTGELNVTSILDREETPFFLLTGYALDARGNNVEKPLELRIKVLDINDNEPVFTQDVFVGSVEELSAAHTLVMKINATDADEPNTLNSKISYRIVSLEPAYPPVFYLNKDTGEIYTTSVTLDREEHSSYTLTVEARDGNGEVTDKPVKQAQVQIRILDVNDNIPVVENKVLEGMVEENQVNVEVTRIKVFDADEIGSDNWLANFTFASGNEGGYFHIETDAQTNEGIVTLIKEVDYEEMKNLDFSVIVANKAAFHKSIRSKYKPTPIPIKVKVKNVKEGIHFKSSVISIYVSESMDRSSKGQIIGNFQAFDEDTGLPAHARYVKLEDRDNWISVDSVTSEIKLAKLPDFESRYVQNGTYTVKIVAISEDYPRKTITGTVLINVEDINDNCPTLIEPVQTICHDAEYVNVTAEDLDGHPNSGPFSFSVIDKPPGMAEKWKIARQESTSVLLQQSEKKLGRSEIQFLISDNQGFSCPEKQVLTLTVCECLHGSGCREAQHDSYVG
Assay: atomic force microscopy (cell-free single-molecule force measurements); Dsg-Fc constructs (0.15 mg/ml) linked by a PEG linker to the cantilever tip and to mica sheets; Force Mapping mode; binding frequency and unbinding force; pulling speeds from 1 to 20 µm/s and modified Bells equation for the bond lifetime; 5 mM EGTA for 1 h lowered the binding frequency
Details: remark: other sources report otherwise

B1: recombinant Fc-construct of the Dsg2 extracellular domain, Q14126 50-609 (Fc fusion)
chain: AWITAPVALREGEDLSKKNPIAKIHSDLAEERGLKITYKYTGKGITEPPFGIFVFNKDTGELNVTSILDREETPFFLLTGYALDARGNNVEKPLELRIKVLDINDNEPVFTQDVFVGSVEELSAAHTLVMKINATDADEPNTLNSKISYRIVSLEPAYPPVFYLNKDTGEIYTTSVTLDREEHSSYTLTVEARDGNGEVTDKPVKQAQVQIRILDVNDNIPVVENKVLEGMVEENQVNVEVTRIKVFDADEIGSDNWLANFTFASGNEGGYFHIETDAQTNEGIVTLIKEVDYEEMKNLDFSVIVANKAAFHKSIRSKYKPTPIPIKVKVKNVKEGIHFKSSVISIYVSESMDRSSKGQIIGNFQAFDEDTGLPAHARYVKLEDRDNWISVDSVTSEIKLAKLPDFESRYVQNGTYTVKIVAISEDYPRKTITGTVLINVEDINDNCPTLIEPVQTICHDAEYVNVTAEDLDGHPNSGPFSFSVIDKPPGMAEKWKIARQESTSVLLQQSEKKLGRSEIQFLISDNQGFSCPEKQVLTLTVCECLHGSGCREAQHDSYVG
B1 gave a bond lifetime of 0.12 s.
